Assay results taken from paper PMC10296094 (2023).

Key:
[1] = molecular target: fluorescein-labelled PMCA peptide (Bos taurus (Bovine), UniProt D3K0R6, fluorescein attached to the C-terminal native Lys); assay: fluorescence polarisation/anisotropy; Ca2+ (1 mM CaCl2)
[2] = molecular target: fluorescein-labelled CaMKII peptide (Homo sapiens (Human), UniProt Q9UQM7, fluorescein attached to the non-native cysteine added to the N-terminus); assay: as above
fluorescein-labelled CaMKII peptide, sequence (Q9UQM7 other isoform, or with tags, fused parts or gaps): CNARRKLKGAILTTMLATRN

fluorescein-labelled PMCA peptide, sequence (D3K0R6 1086-1105): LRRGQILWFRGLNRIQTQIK

B1: His6-tagged human centrin1 (protein)
chain: MASGFKKPSAASTGQKRKVAPKPELTEDQKQEVREAFDLFDVDGSGTIDAKELKVAMRALGFEPRKEEMKKMISEVDREGTGKISFNDFLAVMTQKMSEKDTKEEILKAFRLFDDDETGKISFKNLKRVANELGENLTDEELQEMIDEADRDGDGEVNEEEFLRIMKKTSLY
binding result [1]: no binding | binding result [2]: no binding
